Laboratory results published in patent USRE50268.

Biological target: BG505 SOSIP.664 gp140 trimer (HIV-1 isolate BG505)
Experiment: single-particle negative-stain electron microscopy

B1: PGDM1400 Fab (Fab, V domains shown)
VH: QVHLTQSGPEVRKPGTSVKVSCKAPGNTLKTYDLHWVRSVPGQGLQWMGWISHEGDKKVIVERFKAKVTIDWDRSTNTAYLQLSGLTSGDTAVYYCAKGSKHRLRDYALYDDDGALNWAVDVDYLSNLEFWGQGTAVTVSS
VL: DFVLTQSPHSLSVTPGESASISCKSSHSLIHGDRNNYLAWYVQKPGRSPQLLIYLASSRASGVPDRFSGSGSDKDFTLKISRVETEDVGTYYCMQGRESPWTFGQGTKVDIK
modifications: sulfated tyrosine at position 100F (Tys100F), seen in the electron density map of the Fab crystal structure
Which stoichiometry (Fab per trimer) does the source give for B1 here?
The stoichiometry (Fab per trimer) was 1.
